Tests used:
[1] = target: C-FLAG ILT7 (human ILT7 with FLAG tag at the C terminus, co-expressed with Myc-FcRγ) (human) (UniProt P59901); assay: flow cytometry on ILT7-CHO cells, control antibody, APC-labeled goat anti-mouse IgG
[2] = target: C-FLAG ILT7 (human ILT7 with FLAG tag at the C terminus, co-expressed with Myc-FcRγ) (human) (UniProt P59901); assay: flow cytometry on ILT7-CHO cells, control antibody, APC goat anti-mouse IgG then FITC donkey anti-goat IgG

Chain of C-FLAG ILT7 (human ILT7 with FLAG tag at the C terminus, co-expressed with Myc-FcRγ) (human) (P59901 other isoform, or with tags, fused parts or gaps): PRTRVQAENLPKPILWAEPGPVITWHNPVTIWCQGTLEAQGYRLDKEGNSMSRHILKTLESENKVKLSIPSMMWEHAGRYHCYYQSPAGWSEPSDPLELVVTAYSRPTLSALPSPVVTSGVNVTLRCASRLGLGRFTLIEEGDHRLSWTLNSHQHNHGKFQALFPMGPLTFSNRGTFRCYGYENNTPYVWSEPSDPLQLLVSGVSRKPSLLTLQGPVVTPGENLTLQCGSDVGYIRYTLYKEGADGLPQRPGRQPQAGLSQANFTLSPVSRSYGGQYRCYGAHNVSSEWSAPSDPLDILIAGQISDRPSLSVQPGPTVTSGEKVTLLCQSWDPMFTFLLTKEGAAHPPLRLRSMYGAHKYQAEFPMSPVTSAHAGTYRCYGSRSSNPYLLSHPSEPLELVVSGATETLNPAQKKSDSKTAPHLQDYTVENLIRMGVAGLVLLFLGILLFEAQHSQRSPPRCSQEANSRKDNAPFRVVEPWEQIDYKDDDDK

APC mean fluorescence intensity, incubation at 4 °C [1]: 3
APC mean fluorescence intensity, incubation at 37 °C [1]: 3.64
FITC mean fluorescence intensity, incubation at 4 °C [2]: 3.7
FITC mean fluorescence intensity, incubation at 37 °C [2]: 4.2
Substance: Mouse IgG2a (antibody)

Reference: patent US20090280128A1
